Source: patent US20220259289A1 (Janssen / Centocor, published 2022)

B1: ISOP193ER9P1F11 (designed binder, not shown: small tags and cut ends)
chain: LPAPKNLVVSRVTEDSARLSWTAPDAAFDSFAIQYQEYVAHGEAIVLTVPGSERSYDLTGLKPGTEYHVRISGVKGGGVSWPLSAISTT
B2: ISOP193FR9P1E1 (designed binder, not shown: small tags and cut ends)
chain: LPAPKNLVVSRVTEDSARLSWTAPDAAFDSFIIRYLEDISYGEAIVLTVPGSERSYDLTGLKPGTEYHVGIEGVKGGNVSWPLSAIFTT
B3: ISOP193GR9P1H2 (designed binder, not shown: small tags and cut ends)
chain: LPAPKNLVVSRVTEDSARLSWTAPDAAFDSFEIPYIEVETIGEAIWLHVPGSERSYDLTGLKPGTEYSVGINGVKGGHTSNPLSARFTT
B4: ISOP193GR9P1E10 (designed binder, not shown: small tags and cut ends)
chain: LPAPKNLVVSRVTEDSARLSWTAPDAAFDSFAISYTESIRQGEAIWLWVPGSERSYDLTGLKPGTEYEVTIGGVKGGIRSYPLWAWFTT
B5: ISOP120GR5P1F5 (designed binder, not shown: small tags and cut ends)
chain: LPAPKNLVVSRVTEDSARLSWTAPDAAFDSFEIDYWEVESEGEAIVLFVPGSERSYDLTGLKPGTEYHVHIVGVKGGTPSYPLWADFTT
notes: FN3 domain (Centyrin); tested as E. coli lysate
B6: ISOP193GR9P1F6 (designed binder, not shown: small tags and cut ends)
chain: LPAPKNLVVSRVTEDSARLSWTAPDAAFDSFEIDYWEVESEGEAIVLFVPGSERSYDLTGLKPGTEYHVHIVGVKGGTPSYPLWADFTT
B7: ISOP120GR5P1E7 (designed binder, not shown: small tags and cut ends)
chain: LPAPKNLVVSRVTEDSARLSWTAPDAAFDSFEIDYWEVESEGEAIILFVPGSERSYDLTGLKPGTEYHVHIVGVKGGTPSYPLWADFTT
notes: as for B5
B8: ISOP193GR9P1F7 (designed binder, not shown: small tags and cut ends)
chain: LPAPKNLVVSRVTEDSARLSWTAPDAAFDSFDIPYVEYYPSGEAIVLNVPGSERSYDLTGLKPGTEYGVTIWGIKGGNESVPLTARFTT
B9: ISOP193FR9P1D1 (designed binder, not shown: small tags and cut ends)
chain: LPAPKNLVVSRVTEDSARLSWTAPDAAFDSFFIQYLEDVTNGEAIVLTVPGSERSYDLTGLKPGTEYRVPIAGVKGGRDSQPLSAIFTT
B10: ISOP120GR5P1H6 (designed binder, not shown: small tags and cut ends)
chain: LPAPKNLVVSRVTEDSARLSWTNEQITKYGFDSFLIQYQESEKVGEAIVLTVPGSERSYDLTGLKPGTEYTVSIYGVGRHYTVYDSNPLSAIFTT
notes: as for B5
B11: ISOP120AR5P1F11 (designed binder, not shown: small tags and cut ends)
chain: LPAPKNLVVSRVTEDSARLSWTNEQITKYGFDSFLIQYQESEKVGEAIVLTVPGSERSYDLTGLKPATEYTVSIYGVGRHYTVYDSNPLSAIFTT
notes: as for B5
B12: ISOP120AR5P1G7 (designed binder, not shown: small tags and cut ends)
chain: LPAPKNLVVSRVTEDSARLSWSQHYLSPIPFDSFLIQYQESEKVGEAIVLTVPGSERSYDLTGLKPGTEYTVSIYGVGRHYTVYDSNPLSAIFTT
notes: as for B5
B13: ISOP193GR9P1B3 (designed binder, not shown: small tags and cut ends)
chain: LPAPKNLVVSRVTEDSARLSWTAPDAAFDSFAIGYVEWTANGEAIVLIVPGSERSYDLTGLKPGTEYVVRIRGGVKGGDSSFPLRADFTT
B14: ISOP193GR9P1G9 (designed binder, not shown: small tags and cut ends)
chain: LPAPKNLVVSRVTEDSARLSWTAPDAAFDSFAIFYHEFANSGEAIDLPVPGSERSYDLTGLKPGTEYDVRIYGVKGGTASIPLDAEFTT
B15: ISOP193HR9P1E3 (designed binder, not shown: small tags and cut ends)
chain: LPAPKNLVVSRVTEDSARLSWTAPDAAFDSFEIYYFELRLGGEAIVLTVPGSERSYDLTGLKPGTEYLVTIYGVKGGAYSNPLSAIFTT
B16: ISOP193ER9P1H3 (designed binder, not shown: small tags and cut ends)
chain: LPAPKNLVVSRVTEDSARLSWTAPDAAFDSFEIYYLEVRNRGEAIVLTVPGSERSYDLTGLKPGTEYHVGIAGVKGGFHSFPLSAIFTT
B17: ISOP193HR9P1G5 (designed binder, not shown: small tags and cut ends)
chain: LPAPKNLVVSRVTEDSARLSWTAPDAAFDSFDIYYYELRLGGEAIVLTVPGSERSYDLTGLKPGTEYLVTIYGVKGCAASDPLSAIFTT
B18: ISOP193HR9P1G6 (designed binder, not shown: small tags and cut ends)
chain: LPAPKNLVVSRVTEDSARLSWTAPDAAFDSFDIYYYELRLGGEAIVLTVPGSERSYDLTGLKPGTEYLVTIYGVKVCEQSYPLSAISTT
B19: ISOP193HR9P1H7 (designed binder, not shown: small tags and cut ends)
chain: LPAPKNLVVSRVTEDSARLSWTAPDAAFDSFEIYYREPHYGGEAIVLTVPGSERSYDLTGLKPGTEYWVTIYGVKVCLGSNPLSAIFTT
B20: ISOP193HR9P1F10 (designed binder, not shown: small tags and cut ends)
chain: LPAPKNLVVSRVTEDSARLSWTAPDAAFDSFDIYYYELRLGGEAIVLTVPGSERSYDLTGLKPGTEYLVTIYGVKGGYYSGPLSAIFTT
B21: ISOP193HR9P1E8 (designed binder, not shown: small tags and cut ends)
chain: LPAPKNLVVSRVTEDSARLSWTAPDAAFDSFDIYYYELRLGGEAIVLTVPGSERSYDLTGLKPGTEYLVTIYGVKGGDYSPPLSAIFTT
B22: ISOP193HR9P1G4 (designed binder, not shown: small tags and cut ends)
chain: LPAPKNLVVSRVTEDSARLSWTAPDAAFDSFEIYYFELRLGGEAIVLTVPGSERSYDLTGLKPGTEYLVTIYGVKGGDYSPPLSAIFTT
B23: ISOP193HR9P1G10 (designed binder, not shown: small tags and cut ends)
chain: LPAPKNLVVSRVTEDSARLSWTAPDAAFDSFEIYYFELRLGGEAIVLTVPGSERSYDLTGLKPGTEYLVTIYGVKGGDYSPPLSAISTT
B24: ISOP193HR9P1F8 (designed binder, not shown: small tags and cut ends)
chain: LPAPKNLVVSRVTEDSARLSWTAPDAAFDSFDIYYYELRLGGEAIVLTVPGSERSYDLTGLKPGTEYLVTIYGVKVCYYSTPLSAIFTT
B25: ISOP193HR9P1H10 (designed binder, not shown: small tags and cut ends)
chain: LPAPKNLVVSRVTEDSARLSWTAPDAAFDSFDIYYYELRLGGEAIVLTVPGSERSYDLTGLKPGTEYLVTIYGVKVCLGSNPLSAIFTT

Experiments:
human serum albumin [1] = target: T1, human serum albumin (human, UniProt P02768 25-609); assay: ELISA, negative control HSA
T1 construct: Negative control of the ELISA; also called HSA
Description: (§1) Streptavidin-coated Maxisorp plates (Nunc catalog 436110) were blocked for 1 h in Starting Block T20 (Pierce) and then coated with biotinylated CD137 (using same antigen as in panning) or negative controls (an unrelated Fc-fused recombinant protein and human serum albumin) for 1 h. Plates were rinsed with TBST and diluted lysate was applied to plates for 1 h. Following additional rinses, wells were treated with HRP-conjugated anti-Centyrin antibody (PAB25) for 1 h and then assayed with POD (Roche catalog 11582950001).
T1 sequence (P02768 25-609 limits assumed): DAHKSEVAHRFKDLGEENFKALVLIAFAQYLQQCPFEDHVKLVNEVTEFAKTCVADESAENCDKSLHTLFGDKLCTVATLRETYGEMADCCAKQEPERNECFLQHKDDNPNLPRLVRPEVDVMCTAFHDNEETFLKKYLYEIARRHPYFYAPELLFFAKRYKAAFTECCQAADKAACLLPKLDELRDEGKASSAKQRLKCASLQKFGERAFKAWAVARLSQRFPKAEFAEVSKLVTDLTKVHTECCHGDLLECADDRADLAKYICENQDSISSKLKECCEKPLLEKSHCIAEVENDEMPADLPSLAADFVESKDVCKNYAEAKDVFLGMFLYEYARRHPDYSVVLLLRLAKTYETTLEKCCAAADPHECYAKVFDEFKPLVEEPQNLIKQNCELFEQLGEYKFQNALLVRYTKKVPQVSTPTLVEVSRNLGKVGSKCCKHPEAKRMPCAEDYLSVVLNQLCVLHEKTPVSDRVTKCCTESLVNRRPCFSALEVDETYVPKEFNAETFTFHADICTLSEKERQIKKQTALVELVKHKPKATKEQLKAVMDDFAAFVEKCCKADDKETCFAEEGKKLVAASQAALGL

[2] = target: unrelated Fc-fused recombinant protein; assay: ELISA, negative control Fc protein
[3] = target: T2, recombinant biotinylated CD137 protein (Fc-fusion protein, R&D Systems 838-4B) (human, UniProt Q07011 24-186, biotinylated, sites not stated); assay: ELISA, lysate on biotinylated CD137-Fc
T2 construct: Bought Fc fusion; also called CD137-Fc
Description: as §1

[4] = target: T3, recombinant biotinylated human CD137 protein (Fc-fusion protein, R&D Systems 838-4B) (human, UniProt Q07011 24-186, biotinylated (site not stated)); assay: ELISA, bacterial lysate on plate-bound antigen, luminescence
T3 construct: Bought Fc fusion; The ELISA used the same antigen as the panning; also called CD137-Fc; biotinylated CD137; not shown: Fc part of the bought fusion protein
Description: as §1

human serum albumin [5] = target: T4, human serum albumin (human, UniProt P02768 25-609); assay: as above
T4 construct: Negative control antigen of the screening ELISA; also called HSA
Description: as §1
T4 sequence (P02768 25-609 limits assumed): as above

[6] = target: unrelated Fc-fused recombinant protein (negative control); assay: as above

Binder	ELISA HSA (RLU) (human serum albumin [1])	ELISA Fc Control (RLU) [2] [RLU]	ELISA CD137 (RLU) [3] [RLU]	ELISA CD137-Fc (RLU) [4] [RLU]	ELISA HSA (RLU) (human serum albumin [5])	ELISA Fc Control (RLU) [6] [RLU]
B1	400	2240	1.12e+07	–	–	–
B2	880	2000	1.16e+07	–	–	–
B3	640	1360	5.31e+06	–	–	–
B4	480	1360	1.05e+07	–	–	–
B5	–	–	–	1.28e+06	400	400
B6	400	1360	9.85e+06	–	–	–
B7	–	–	–	1.13e+06	480	400
B8	400	880	3.48e+06	–	–	–
B9	640	1680	8.13e+06	–	–	–
B10	–	–	–	721000	400	400
B11	–	–	–	715000	320	480
B12	–	–	–	568000	480	560
B13	320	880	3.46e+06	–	–	–
B14	480	960	3.05e+06	–	–	–
B15	640	1120	1.78e+07	–	–	–
B16	400	1520	1.05e+07	–	–	–
B17	3360	24200	1.51e+07	–	–	–
B18	1200	8160	1.15e+07	–	–	–
B19	13700	49800	4.6e+06	–	–	–
B20	960	1280	1.58e+07	–	–	–
B21	1520	3120	1.63e+07	–	–	–
B22	560	960	1.72e+07	–	–	–
B23	800	1360	1.56e+07	–	–	–
B24	6080	31300	1.61e+07	–	–	–
B25	10100	43900	1.48e+07	–	–	–
